B1: PRO004 (bispecific antibody)
chain: EVQLLESGGGLVQPGGSLRLSCAASGFTFSNAWMNWVRQAPGKGLEWVSSISSSSSYIYYADSVKGRFTISRDNSKNTLYLQMNSLRAEDTAVYYCARAVAAGGMFWGLDQWGQGTLVTVTSSGGGGSGGGGSGGGGSQSVLTQPPSASGTPGQRVTISCSGSRSNIGSNSVHWYQQLPGTAPKLLIYGNSNRPSGVPDRFSGSKSGTSASLAISGLRSEDEADYYCQSYDSSLNDHVVFGGGTKLTVLDKTHTCPPCPAPEAAGAPSVFLFPPKPKDTLMISRTPEVTCVVVDVSHEDPEVKFNWYVDGVEVHNAKTKPREEQYNSTYRVVSVLTVLHQDWLNGKEYKCKVSNKALPAPIEKTISKAKGQPREPQVYTLPPSRDELTKNQVSLTCLVKGFYPSDIAVEWESNGQPENNYKTTPPVLDSDGSFFLYSKLTVDKSRWQQGNVFSCSVMHEALHNHYTQKSLSLSPGGGGGSGGGGSEVQLLESGGGLVQPGGSLRLSCAASGFTFSIYAMSWVRQAPGKGLEWVSAISGSGGSTYYADSVKGRFTISRDNSKNTLYLQMNSLRAEDTAVYYCARDFDYWGQGTLVTVTSSGGGGSGGGGSGGGGSQSVLTQPPSASGTPGQRVTISCSGSSSNIGSNYVYWYQQLPGTAPKLLIYGNINRPSGVPDRFSGSKSGTSASLAISGLRSEDEADYYCAAWDDSLNGRVFGGGTKLTVL
B2: DGL266 (bispecific antibody)
chain 1: EVQLLESGGGLVQPGGSLRLSCAASGFTFSIYAMSWVRQAPGKGLEWVSAISGSGGSTYYADSVKGRFTISRDNSKNTLYLQMNSLRAEDTAVYYCARDFDYWGQGTLVTVTSSGGGGSGGGGSGGGGSQSVLTQPPSASGTPGQRVTISCSGSSSNIGSNYVYWYQQLPGTAPKLLIYGNINRPSGVPDRFSGSKSGTSASLAISGLRSEDEADYYCAAWDDSLNGRVFGGGTKLTVLGGGGSGGGGSGGGGSGVECPPCPAPPVAGPSVFLFPPKPKDTLMISRTPEVTCVVVDVSHEDPEVQFNWYVDGVEVHNAKTKPREEQFNSTFRVVSVLTVVHQDWLNGKEYKCKVSNKGLPAPIEKTISKTKGQPREPQVYTLPPCREEMTKNQVSLWCLVKGFYPSDIAVEWESNGQPENNYKTTPPMLDSDGSFFLYSKLTVDKSRWQQGNVFSCSVMHEALHNHYTQKSLSLSPG
chain 2: EVQLLESGGGLVQPGGSLRLSCAASGFTFSNAWMNWVRQAPGKGLEWVSSISSSSSYIYYADSVKGRFTISRDNSKNTLYLQMNSLRAEDTAVYYCARAVAAGGMFWGLDQWGQGTLVTVTSSGGGGSGGGGSGGGGSQSVLTQPPSASGTPGQRVTISCSGSRSNIGSNSVHWYQQLPGTAPKLLIYGNSNRPSGVPDRFSGSKSGTSASLAISGLRSEDEADYYCQSYDSSLNDHVVFGGGTKLTVLGGGGSGGGGSGGGGSGVECPPCPAPPVAGPSVFLFPPKPKDTLMISRTPEVTCVVVDVSHEDPEVQFNWYVDGVEVHNAKTKPREEQFNSTFRVVSVLTVVHQDWLNGKEYKCKVSNKGLPAPIEKTISKTKGQPREPQVCTLPPSREEMTKNQVSLSCAVKGFYPSDIAVEWESNGQPENNYKTTPPMLDSDGSFFLVSKLTVDKSRWQQGNVFSCSVMHEALHNHYTQKSLSLSPG
B3: DGL286 (bispecific antibody)
chain: EVQLLESGGGLVQPGGSLRLSCAASGFTFSNAWMNWVRQAPGKGLEWVSSISSSSSYIYYADSVKGRFTISRDNSKNTLYLQMNSLRAEDTAVYYCARAVAAGGMFWGLDQWGQGTLVTVTSSGGGGSGGGGSGGGGSQSVLTQPPSASGTPGQRVTISCSGSRSNIGSNSVHWYQQLPGTAPKLLIYGNSNRPSGVPDRFSGSKSGTSASLAISGLRSEDEADYYCQSYDSSLNDHVVFGGGTKLTVLDKGPSVFPLAPEPKSSEVQLLESGGGLVQPGGSLRLSCAASGFTFSIYAMSWVRQAPGKGLEWVSAISGSGGSTYYADSVKGRFTISRDNSKNTLYLQMNSLRAEDTAVYYCARDFDYWGQGTLVTVTSSGGGGSGGGGSGGGGSQSVLTQPPSASGTPGQRVTISCSGSSSNIGSNYVYWYQQLPGTAPKLLIYGNINRPSGVPDRFSGSKSGTSASLAISGLRSEDEADYYCAAWDDSLNGRVFGGGTKLTVLDKTHTCPPCPAPEAAGAPSVFLFPPKPKDTLMISRTPEVTCVVVDVSHEDPEVKFNWYVDGVEVHNAKTKPREEQYNSTYRVVSVLTVLHQDWLNGKEYKCKVSNKALPAPIEKTISKAKGQPREPQVYTLPPSRDELTKNQVSLTCLVKGFYPSDIAVEWESNGQPENNYKTTPPVLDSDGSFFLYSKLTVDKSRWQQGNVFSCSVMHEALHNHYTQKSLSLSPG
B4: DGL288 (bispecific antibody)
chain: EVQLLESGGGLVQPGGSLRLSCAASGFTFSDYYMTWIRQAPGKGLEWVSSISGGSTYYADSRKGRFTISRDNSENTLYLQMNSLRAEDTAVYYCARDFGVAGWFGQYGMDVWGQGTLVTVSSGGGGSGGGGSGGGGSQSVLTQPPSASGTPGQRVTISCTGSSSNIGAGYDVHWYQQLPGTAPKLLIYRSNQRPSGVPDRFSGSKSGTSASLAISGLRSEDEADYYCSSYAGNYNLVFGGGTKLTVLDKGPSVFPLAPEPKSSEVQLLESGGGLVQPGGSLRLSCAASGFTFSSYAMSWVRQAPGKGLEWVANINQDGSEKNYVDSMRGRFTISRDNSKNTLYLQMNSLRAEDTAVYYCAREFDYWGQGTLVTVTSSGGGGSGGGGSGGGGSQSVLAQPPSASGTPGQRVTISCSGSSSNIGSNYVYWYQQLPGTAPKLLIYGNNKRPSGVPDRFSGSKSGTSASLAISGLRSEDEADYYCAAWDDSLNGRVFGGGTKLTVLDKTHTCPPCPAPEAAGAPSVFLFPPKPKDTLMISRTPEVTCVVVDVSHEDPEVKFNWYVDGVEVHNAKTKPREEQYNSTYRVVSVLTVLHQDWLNGKEYKCKVSNKALPAPIEKTISKAKGQPREPQVYTLPPSRDELTKNQVSLTCLVKGFYPSDIAVEWESNGQPENNYKTTPPVLDSDGSFFLYSKLTVDKSRWQQGNVFSCSVMHEALHNHYTQKSLSLSPG
B5: PRO003 (bispecific antibody)
chain: EVQLLESGGGLVQPGGSLRLSCAASGFTFSIYAMSWVRQAPGKGLEWVSAISGSGGSTYYADSVKGRFTISRDNSKNTLYLQMNSLRAEDTAVYYCARDFDYWGQGTLVTVTSSGGGGSGGGGSGGGGSQSVLTQPPSASGTPGQRVTISCSGSSSNIGSNYVYWYQQLPGTAPKLLIYGNINRPSGVPDRFSGSKSGTSASLAISGLRSEDEADYYCAAWDDSLNGRVFGGGTKLTVLDKTHTCPPCPAPEAAGAPSVFLFPPKPKDTLMISRTPEVTCVVVDVSHEDPEVKFNWYVDGVEVHNAKTKPREEQYNSTYRVVSVLTVLHQDWLNGKEYKCKVSNKALPAPIEKTISKAKGQPREPQVYTLPPSRDELTKNQVSLTCLVKGFYPSDIAVEWESNGQPENNYKTTPPVLDSDGSFFLYSKLTVDKSRWQQGNVFSCSVMHEALHNHYTQKSLSLSPGGGGGSGGGGSEVQLLESGGGLVQPGGSLRLSCAASGFTFSNAWMNWVRQAPGKGLEWVSSISSSSSYIYYADSVKGRFTISRDNSKNTLYLQMNSLRAEDTAVYYCARAVAAGGMFWGLDQWGQGTLVTVTSSGGGGSGGGGSGGGGSQSVLTQPPSASGTPGQRVTISCSGSRSNIGSNSVHWYQQLPGTAPKLLIYGNSNRPSGVPDRFSGSKSGTSASLAISGLRSEDEADYYCQSYDSSLNDHVVFGGGTKLTVL
B6: DGL287 (bispecific antibody)
chain: EVQLLESGGGLVQPGGSLRLSCAASGFTFSSYAMSWVRQAPGKGLEWVANINQDGSEKNYVDSMRGRFTISRDNSKNTLYLQMNSLRAEDTAVYYCAREFDYWGQGTLVTVTSSGGGGSGGGGSGGGGSQSVLAQPPSASGTPGQRVTISCSGSSSNIGSNYVYWYQQLPGTAPKLLIYGNNKRPSGVPDRFSGSKSGTSASLAISGLRSEDEADYYCAAWDDSLNGRVFGGGTKLTVLDKGPSVFPLAPEPKSSEVQLLESGGGLVQPGGSLRLSCAASGFTFSDYYMTWIRQAPGKGLEWVSSISGGSTYYADSRKGRFTISRDNSENTLYLQMNSLRAEDTAVYYCARDFGVAGWFGQYGMDVWGQGTLVTVSSGGGGSGGGGSGGGGSQSVLTQPPSASGTPGQRVTISCTGSSSNIGAGYDVHWYQQLPGTAPKLLIYRSNQRPSGVPDRFSGSKSGTSASLAISGLRSEDEADYYCSSYAGNYNLVFGGGTKLTVLDKTHTCPPCPAPEAAGAPSVFLFPPKPKDTLMISRTPEVTCVVVDVSHEDPEVKFNWYVDGVEVHNAKTKPREEQYNSTYRVVSVLTVLHQDWLNGKEYKCKVSNKALPAPIEKTISKAKGQPREPQVYTLPPSRDELTKNQVSLTCLVKGFYPSDIAVEWESNGQPENNYKTTPPVLDSDGSFFLYSKLTVDKSRWQQGNVFSCSVMHEALHNHYTQKSLSLSPG
B7: DGL285 (bispecific antibody)
chain: EVQLLESGGGLVQPGGSLRLSCAASGFTFSIYAMSWVRQAPGKGLEWVSAISGSGGSTYYADSVKGRFTISRDNSKNTLYLQMNSLRAEDTAVYYCARDFDYWGQGTLVTVTSSGGGGSGGGGSGGGGSQSVLTQPPSASGTPGQRVTISCSGSSSNIGSNYVYWYQQLPGTAPKLLIYGNINRPSGVPDRFSGSKSGTSASLAISGLRSEDEADYYCAAWDDSLNGRVFGGGTKLTVLDKGPSVFPLAPEPKSSEVQLLESGGGLVQPGGSLRLSCAASGFTFSNAWMNWVRQAPGKGLEWVSSISSSSSYIYYADSVKGRFTISRDNSKNTLYLQMNSLRAEDTAVYYCARAVAAGGMFWGLDQWGQGTLVTVTSSGGGGSGGGGSGGGGSQSVLTQPPSASGTPGQRVTISCSGSRSNIGSNSVHWYQQLPGTAPKLLIYGNSNRPSGVPDRFSGSKSGTSASLAISGLRSEDEADYYCQSYDSSLNDHVVFGGGTKLTVLDKTHTCPPCPAPEAAGAPSVFLFPPKPKDTLMISRTPEVTCVVVDVSHEDPEVKFNWYVDGVEVHNAKTKPREEQYNSTYRVVSVLTVLHQDWLNGKEYKCKVSNKALPAPIEKTISKAKGQPREPQVYTLPPSRDELTKNQVSLTCLVKGFYPSDIAVEWESNGQPENNYKTTPPVLDSDGSFFLYSKLTVDKSRWQQGNVFSCSVMHEALHNHYTQKSLSLSPG

Molecular target: ALK-1/BMPR-2 receptor pair of the PathHunter U2Os dimerization cells (DiscoverX 93-0962C3) (UniProt P37023 22-503; Q13873 27-1038)
Sequence (P37023 22-503, chain 1 of 2): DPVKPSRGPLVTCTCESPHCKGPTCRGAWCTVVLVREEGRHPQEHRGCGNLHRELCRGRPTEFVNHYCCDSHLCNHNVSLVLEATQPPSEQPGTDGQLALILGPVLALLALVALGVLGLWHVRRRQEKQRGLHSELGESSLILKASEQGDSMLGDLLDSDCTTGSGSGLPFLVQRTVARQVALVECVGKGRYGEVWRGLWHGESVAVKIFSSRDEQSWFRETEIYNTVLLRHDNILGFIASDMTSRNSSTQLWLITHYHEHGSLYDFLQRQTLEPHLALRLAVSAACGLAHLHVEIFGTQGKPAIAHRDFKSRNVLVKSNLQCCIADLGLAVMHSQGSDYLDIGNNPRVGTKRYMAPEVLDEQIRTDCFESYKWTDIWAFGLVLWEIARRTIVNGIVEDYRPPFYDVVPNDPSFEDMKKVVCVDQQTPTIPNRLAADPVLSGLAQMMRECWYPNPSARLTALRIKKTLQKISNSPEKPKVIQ
Sequence (Q13873 27-1038, chain 2 of 2): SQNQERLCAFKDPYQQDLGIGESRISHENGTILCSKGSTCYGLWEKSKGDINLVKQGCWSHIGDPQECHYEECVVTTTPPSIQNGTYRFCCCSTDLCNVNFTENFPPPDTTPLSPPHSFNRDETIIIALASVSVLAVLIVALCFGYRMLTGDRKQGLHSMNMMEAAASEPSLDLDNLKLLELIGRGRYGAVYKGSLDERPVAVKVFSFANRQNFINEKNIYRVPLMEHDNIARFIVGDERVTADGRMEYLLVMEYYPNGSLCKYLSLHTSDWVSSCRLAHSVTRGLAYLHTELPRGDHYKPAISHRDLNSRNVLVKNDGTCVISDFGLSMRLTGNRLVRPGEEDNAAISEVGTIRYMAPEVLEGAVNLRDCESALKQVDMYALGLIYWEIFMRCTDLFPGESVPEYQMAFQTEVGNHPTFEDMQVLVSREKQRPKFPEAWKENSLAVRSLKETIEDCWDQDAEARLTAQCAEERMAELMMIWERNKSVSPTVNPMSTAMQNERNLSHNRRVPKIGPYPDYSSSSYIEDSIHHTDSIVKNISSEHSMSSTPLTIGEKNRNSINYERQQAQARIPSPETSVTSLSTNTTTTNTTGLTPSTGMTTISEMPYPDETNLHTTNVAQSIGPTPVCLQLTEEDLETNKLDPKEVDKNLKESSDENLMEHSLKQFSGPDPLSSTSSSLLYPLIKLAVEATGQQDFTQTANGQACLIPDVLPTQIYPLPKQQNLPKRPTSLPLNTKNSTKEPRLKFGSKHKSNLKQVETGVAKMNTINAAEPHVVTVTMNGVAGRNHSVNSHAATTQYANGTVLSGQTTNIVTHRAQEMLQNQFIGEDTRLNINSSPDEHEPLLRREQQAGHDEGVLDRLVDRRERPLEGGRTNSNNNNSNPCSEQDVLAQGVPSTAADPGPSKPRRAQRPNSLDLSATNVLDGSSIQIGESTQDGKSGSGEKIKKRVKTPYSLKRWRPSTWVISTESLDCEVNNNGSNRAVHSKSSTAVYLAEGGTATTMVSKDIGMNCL
Assay: cell-based or functional assay

% Emax BMP9 [%] | EC50 [pM] | Emax (RLU) | Binder
46 | 500 | 1.21e+06 | B1
39 | 2000 | 1.04e+06 | B2
68 | 200 | 1.8e+06 | B3
76 | 70 | 2e+06 | B4
47 | 100 | 1.25e+06 | B5
48 | 40 | 1.26e+06 | B6
56 | 80 | 1.47e+06 | B7
